Article PMC11734896, “Engineering dimer mutants of human geranylgeranyl pyrophosphate synthase” (PLOS ONE, 2025)
Where a chain is given by its changes, count along the chain named. In names and notes the source's numbering stands.

B1: wild-type human geranylgeranyl pyrophosphate synthase (enzyme)
chain: MEKTQETVQRILLEPYKYLLQLPGKQVRTKLSQAFNHWLKVPEDKLQIIIEVTEMLHNASLLIDDIEDNSKLRRGFPVAHSIYGIPSVINSANYVYFLGLEKVLTLDHPDAVKLFTRQLLELHQGQGLDIYWRDNYTCPTEEEYKAMVLQKTGGLFGLAVGLMQLFSDYKEDLKPLLNTLGLFFQIRDDYANLHSKEYSENKSFCEDLTEGKFSFPTIHAIWSRPESTQVQNILRQRTENIDIKKYCVHYLEDVGSFEYTRNTLKELEAKAYKQIDARGGNPELVALVKHLSKMFKEENE
notes: geranylgeranyl pyrophosphate synthase (GGPPS), human; theoretical subunit mass printed as 37,424 Da; The printed subunit mass of 37,424 Da is larger than that of the untagged natural protein as I recall it, so a tag was probably kept; also called GGPPS; WT GGPPS
B2: human GGPPS Y246D/C205A mutant (enzyme)
chain: B1 chain with C205A, Y246D
notes: also called DA; DA mutant
B3: human GGPPS Y246D/C247L mutant (enzyme)
chain: B1 chain with Y246D, C247L
notes: also called DL; DL mutant
B4: human GGPPS Y246K/C247L mutant (enzyme)
chain: B1 chain with Y246K, C247L
notes: also called KL; KL mutant

What was measured:
[1] = molecular target: T1, geranylgeranyl pyrophosphate synthase (GGPPS) (Homo sapiens, UniProt O95749, Y246D/C247L)
T1 construct: gene GGPS1
T1 sequence (O95749 whole entry Y246D/C247L): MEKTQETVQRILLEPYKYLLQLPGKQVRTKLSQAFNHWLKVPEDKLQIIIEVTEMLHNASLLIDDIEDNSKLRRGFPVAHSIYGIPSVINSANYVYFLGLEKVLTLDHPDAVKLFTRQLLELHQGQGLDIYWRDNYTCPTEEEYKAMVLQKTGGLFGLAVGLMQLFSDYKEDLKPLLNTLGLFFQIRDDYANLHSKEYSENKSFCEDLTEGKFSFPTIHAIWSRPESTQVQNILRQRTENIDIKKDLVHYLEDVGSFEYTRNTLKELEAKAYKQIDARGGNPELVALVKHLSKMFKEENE

[2] = molecular target: the molecule itself; test: SEC; HiLoad 16/600 Superdex 200 step of the purification; 10 mM HEPES pH 7.5, 500 mM NaCl, 2 mM β-mercaptoethanol, 5% glycerol; mass estimated from a standard curve; self-association
[3] = molecular target: the molecule itself; test: differential scanning fluorimetry (Tm) + native gel or EMSA; oligomeric state inferred from Tm without inhibitor (10 mM HEPES pH 7.5, 100 mM NaCl, 3 mM MgCl2, 0.5 mM TCEP, 5 μM protein), supported by native-PAGE (S2 Fig); self-association

Molecule | stoichiometry N [2] | stoichiometry N [3] | further results
C=C(C)CCO[P@@](=O)(O)OP(=O)(O)O [IPP, isopentenyl pyrophosphate] |  |  | X-ray crystal structure, 2.1 Å [1]: clearly indicated the presence of IPP within its anticipated binding site in one subunit of the dimer mutant
B1 | 6 |  | 
B2 |  | 2 | 
B3 | 2 |  | 
B4 |  | 2 | 
